Measured values taken from patent EP4293046A1 (Shanghai Jemincare Pharmaceuticals Co., Ltd., dated 2023).

How the values were obtained:
[1] = molecular target: biotin-labeled monkey PD-1 (Acro, Catalog Number: PD1-C82E6) (monkey (cyno)) (UniProt B0LAJ3); experiment: flow cytometry, yeast-displayed Fab, titration of soluble PD-1
[2] = molecular target: biotin-labeled human PD-1 (Acro, Catalog Number: PD1-H82E4) (human) (UniProt Q15116); experiment: as above
[3] = molecular target: T1, human PD-1 (Acro, Catalog Number: PD-1-H5221) (human, UniProt Q15116 25-167); experiment: BLI, Octet RED96e, antibody on AHC sensor, PD-1 100 nM
T1 construct: Bought protein

[4] = molecular target: T2, human PD-1 (Sino Biological, Catalog Number: 10377-H08H) (human, UniProt Q15116 25-167); experiment: as above
T2 construct: Bought protein

[5] = molecular target: T3, monkey PD-1 (Acro, Catalog Number: PD-1-C5223) (monkey, UniProt B0LAJ3 25-170); experiment: as above
T3 construct: Bought protein; not shown: any purification tag of the vendor's construct (Acro PD-1-C5223)

[6] = molecular target: T2, human PD-1 (Sino Biological, Catalog …); experiment: BLI, Octet RED96e
[7] = molecular target: T1, human PD-1 (Acro, Catalog Number: …); experiment: BLI, Octet RED96e
[8] = molecular target: T3, monkey PD-1 (Acro, Catalog Number: …); experiment: BLI, Octet RED96e

T2 sequence (Q15116 25-167 limits assumed): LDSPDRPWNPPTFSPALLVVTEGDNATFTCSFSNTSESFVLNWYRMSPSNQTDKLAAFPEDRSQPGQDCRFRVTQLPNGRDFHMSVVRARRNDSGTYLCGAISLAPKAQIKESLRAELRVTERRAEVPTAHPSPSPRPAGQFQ
T1 sequence (Q15116 25-167 limits assumed): as above
T3 sequence (B0LAJ3 entry or part of it limits assumed, form in doubt): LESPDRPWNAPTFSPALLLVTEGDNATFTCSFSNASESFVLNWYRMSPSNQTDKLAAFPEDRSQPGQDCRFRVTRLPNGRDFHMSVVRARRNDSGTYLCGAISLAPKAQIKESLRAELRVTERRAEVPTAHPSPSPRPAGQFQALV
biotin-labeled human PD-1 (Acro, Catalog Number: PD1-H82E4) (human), sequence (Q15116 25-167 limits assumed): as the sequence (Q15116 25-167 limits assumed) above
biotin-labeled monkey PD-1 (Acro, Catalog Number: PD1-C82E6) (monkey (cyno)), sequence (B0LAJ3 entry or part of it limits assumed): as the sequence (B0LAJ3 entry or part of it limits assumed, form in doubt) above

| Ag50 [1] | Ag50 [2] | Kd [3] | koff [3] | kon [3] | Kd [4] | koff [4] | kon [4] | Kd [5] | koff [5] | kon [5] | fold higher affinity than Pembrolizumab [6] | fold affinity against the parent antibody [7] | fold affinity against the parent antibody [8] | Binder |
| --- | --- | --- | --- | --- | --- | --- | --- | --- | --- | --- | --- | --- | --- | --- |
| 36.1 nM | 5.08 nM |  |  |  |  |  |  |  |  |  |  |  |  | 41D2HzL4H3 parent sequence displayed on the yeast surface in the form of Fab (Fab, V domains shown) VH: EVQLVESGGGLVKPGGSLRLSCAASGFTFSNYDMSWVRQAPGKGLEWVSTISGGGSYTYYADSVKGRFTISRDNAKNSLYLQMNSLRAEDTAVYYCVSPYYGMEYWGQGTLVTVSS VL: DIQLTQSPSFLSASVGDRVTITCKASQDVGTAVAWYQQKPGKAPKLLIYWASTRHTGVPSRFSGSGSGTEFTLTISSLQPEDFATYFCQQYSSYPWTFGGGTKVEIK |
|  |  | 1.27 nM | 0.000589 s⁻¹ | 464000 M⁻¹ s⁻¹ | 1.92 nM | 0.000542 s⁻¹ | 283000 M⁻¹ s⁻¹ | 5.2 nM | 0.00153 s⁻¹ | 295000 M⁻¹ s⁻¹ | 4.2 times |  |  | 41D2HzL4H3 (antibody, V domains shown, Humanized antibody; the description mentions human IgG4 S228P and kappa; also called parent antibody; humanized antibody of 41D2-2C3D7) VH: EVQLVESGGGLVKPGGSLRLSCAASGFTFSNYDMSWVRQAPGKGLEWVSTISGGGSYTYYADSVKGRFTISRDNAKNSLYLQMNSLRAEDTAVYYCVSPYYGMEYWGQGTLVTVSS VL: DIQLTQSPSFLSASVGDRVTITCKASQDVGTAVAWYQQKPGKAPKLLIYWASTRHTGVPSRFSGSGSGTEFTLTISSLQPEDFATYFCQQYSSYPWTFGGGTKVEIK |
| 2.42 nM | 1.26 nM | 0.504 nM | 0.00023 s⁻¹ | 457000 M⁻¹ s⁻¹ |  |  |  | 1.52 nM | 0.000486 s⁻¹ | 320000 M⁻¹ s⁻¹ |  | ~2 times | ~2 times | Ab2005Am08 (antibody, V domains shown, also called clone YC215H3 as IgG) VH: EVQLVESGGGLVKPGGSLRLSCAASGFTFSNYDMSWVRQAPGKGLEWVSTISGGGRYTYYADSVKGRFTISRDNAKNSLYLQMNSLRAEDTAVYYCVSPYYGMEYWGQGTLVTVSS VL: DIQLTQSPSFLSASVGDRVTITCKASQDVGTAVAWYQQKPGKAPKLLIYWASTRHTGVPSRFSGSGSGTEFTLTISSLQPEDFATYFCQQYSSYPWTFGGGTKVEIK |
|  |  |  |  |  | 8.04 nM | 0.00118 s⁻¹ | 147000 M⁻¹ s⁻¹ |  |  |  |  |  |  | 1910h3hzL3H4 (antibody, V domains shown, Humanized antibody; the description mentions human IgG4 S228P and kappa; also called humanized antibody of 46H3A8; 1910h3hzL3 light chain + 1910h3hzH4 heavy chain) VH: QVQLVQSGAEVKKPGASVKVSCKASGFTFIDYEMHWVRQAPGQGLEWIGGIHPGSGGTAYNQKFKGRATLTADISISTAYMELSRLRSDDTAVYYCTREGFDVGWYFDVWGQGTTVTVSS VL: DVVMTQSPLSLPVTLGQPASISCRSSQSIVHSDGDTFLEWYQQRPGQSPRLLIYKVSNRFSGVPDRFSGSGSGTDFTLKISRVEAEDVGVYYCFQGSHVPYTFGQGTKLEIK |
